Test results reported in patent US20240376207A1 (JIANGSU HENGRUI PHARMACEUTICALS, published 2024).

What was measured:
[1] = molecular target: T1, cynomolgus monkey PVRIG expressed on cells (cynomolgus monkey, UniProt A0A2K5WVV8 1-322); assay: FACS, HEK293 cells overexpressing target
T1 construct: whole, on cells; also called Monkey PVRIG FACS; cells overexpressing cynomolgus monkey PVRIG
T1 sequence: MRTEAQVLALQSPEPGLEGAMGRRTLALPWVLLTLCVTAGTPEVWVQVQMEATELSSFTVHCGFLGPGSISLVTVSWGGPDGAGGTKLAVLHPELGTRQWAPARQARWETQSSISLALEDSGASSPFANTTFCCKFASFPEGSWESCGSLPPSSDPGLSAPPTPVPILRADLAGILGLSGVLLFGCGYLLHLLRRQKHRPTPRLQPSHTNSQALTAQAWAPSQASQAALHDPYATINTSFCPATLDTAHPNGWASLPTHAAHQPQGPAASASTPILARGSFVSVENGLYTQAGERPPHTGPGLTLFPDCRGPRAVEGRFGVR
Experimental: (§1) The expression plasmid carrying human or cynomolgus monkey PVRIG gene sequence was transfected into HEK293 cells, and the over-expressing stable transfection monoclonal cell strain was obtained by antibiotic screening and infinite dilution. Overexpressing cells were seeded into a 96-well plate at 2×10⁵ cells/per well. The cells were centrifuged at 300 g for 5 min, the supernatant was then removed, 100 μL of the test antibody was added, and the mixture was incubated at 4° C. for 1 h. The mixture was centrifuged, the supernatant was removed, the plate was washed 3 times with 200 μL of wash buffer (PBS+2% FBS), and then 100 μL of an anti-human IgG secondary antibody (Invitrogen, A-11013) labeled with Alexa Fluor 488 diluted at 1:500 was added. The mixture was incubated at 4° C. for 1 h. The plate was centrifuged, and the supernatant was removed. The plate was washed 3 times with 200 μL of wash buffer (PBS+2% FBS). The cells were resuspended in 100 μL of PBS and tested on a flow cytometer (BD FACS Calibur or BD FACS Canto_II).
(§2) Binding of the humanized anti-PVRIG antibodies to human or cynomolgus monkey PVRIG was detected by using a flow cytometer according to the method of Example 5.

[2] = molecular target: T2, human PVRIG expressed on cells (human, UniProt Q6DKI7 41-326); assay: FACS, HEK293 cells overexpressing target
T2 construct: whole, on cells; also called Human PVRIG FACS; cells overexpressing human PVRIG
T2 sequence (looked up): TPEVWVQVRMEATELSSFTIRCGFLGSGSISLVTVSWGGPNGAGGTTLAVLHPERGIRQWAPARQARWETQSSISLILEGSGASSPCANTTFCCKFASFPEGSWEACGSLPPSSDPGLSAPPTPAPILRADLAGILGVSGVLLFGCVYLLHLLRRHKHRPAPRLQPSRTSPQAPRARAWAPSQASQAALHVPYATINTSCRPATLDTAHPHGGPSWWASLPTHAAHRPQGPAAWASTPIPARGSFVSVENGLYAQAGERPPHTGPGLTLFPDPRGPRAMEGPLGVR
Experimental: as §1, §2

[3] = molecular target: T2, human PVRIG expressed on cells; assay: cell-based or functional assay
[4] = molecular target: T3, his-tagged human PVRIG (h-PVRIG-his) recombinant protein (human, UniProt Q6DKI7 41-171, limits assumed); assay: BLI (Fortebio), antibody on Protein A sensor, 1:1 fit
T3 construct: bought from Acrobiosystems; also called Human PVRIG-his; human PVRIG recombinant protein; not shown: his tag
T3 sequence (looked up): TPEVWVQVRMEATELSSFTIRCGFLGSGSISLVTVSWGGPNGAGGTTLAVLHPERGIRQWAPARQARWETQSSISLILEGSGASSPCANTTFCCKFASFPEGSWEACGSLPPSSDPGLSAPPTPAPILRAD
Experimental: A Protein A biosensor (Fortebio, #18-5010) was immersed in 200 μL of KB buffer (PBS, pH 7.4, 0.02% tween-20, 0.1% BSA) for 60 s for the wetting treatment. Then, the anti-PVRIG antibody was diluted to 10 μg/mL with the KB buffer, and the sensor was immersed in 200 μL of the solution until the reading was 1.2 nm. The sensor was immersed in the KB buffer for 100 s to elute excess antibody. The his-tagged human PVRIG was diluted in a 2-fold gradient to 64 nM-4 nM with the KB buffer. The sensor was immersed in the solution for 300 s for binding. The sensor was immersed in the KB buffer for 600 s for dissociation. The data were fitted in a dynamic 1:1 binding mode.
The affinity of the humanized anti-PVRIG antibodies for human PVRIG was detected according to the method of Example 7. All the antibodies listed in the Table have high affinity for human PVRIG.

[5] = molecular target: T2, human PVRIG expressed on cells; assay: cell-based or functional assay; remark: listed apart in the source

B1: humanized anti-PVRIG antibody 151H9 (antibody, human IgG4 S228P, F234A L235A, V domains shown)
VH: HVQLVESGGGLVQPGGSLRLSCVASASGFTYRPYCMAWFRQAPGKGLEAVAGIDIFGGTTYADSVKGRFTASRDNAGFSLYLQMNSLRAEDTAVYYCAAGDSPDGRCPPLGQGLNYWGQGTMVTVSS
[1]
  EC50: 3.94 nM
[2]
  EC50: 0.004 nM

B2: humanized anti-PVRIG antibody 151H4 (antibody, human IgG4 S228P, F234A L235A, V domains shown)
VH: EVQLVESGGGLVQPGGSLRLSCVASASGFTYRPYCMAWFRQAPGKGLEAVAGIDIFGGTTYADSVKGRFTISRDNAKNSLYLQMNSLRAEDTAVYYCAAGDSPDGRCPPLGQGLNYWGQGTMVTVSS
[3]
  PVRIG reporter gene cell activity EC50: 3.55 nM
[1]
  EC50: 0.035 nM
[2]
  EC50: 0.24 nM

B3: humanized anti-PVRIG antibody 30H1 (antibody, human IgG4 S228P, F234A L235A, V domains shown)
VH: EVQLVESGGGLVQPGGSLRLSCAASGFTFSGDCMGWFRQAPGKGLEGVATIDNAGRIKYADSVKGRFTISRDNAKNSLYLQMNSLRAEDTAVYYCAAGWTFGGQCSPADWGQGTQVTVSS
[1]
  EC50: 0.374 nM
[2]
  EC50: 0.024 nM

B4: humanized anti-PVRIG antibody 38H9 (antibody, human IgG4 S228P, F234A L235A, V domains shown)
VH: EVQLVESGGGVVQPGGSLRLSCAASPSTYGPSDMAWFRQAPGKGLEGVATISAAGRLTYYTDSVRGRFTISRDNSKNTMYLQMNSLRAEDTAVYYCAADFAGGSSLFADYKYWGQGTMVTVSS
[2]
  EC50: 0.068 nM

B5: humanized anti-PVRIG antibody 38H7 (antibody, human IgG4 S228P, F234A L235A, V domains shown)
VH: EVQLVESGGGVVQPGGSLRLSCAASPSTYGPSDMAWFRQAPGKQREGVATISAAGRLTYYTDSVRGRFTISRDNSKNTMYLQMNSLRAEDTAVYYCAADFAGGSSLFADYKYWGQGTMVTVSS
[1]
  EC50: 0.049 nM
[2]
  EC50: 0.04 nM

B6: humanized anti-PVRIG antibody 38H2 (antibody, human IgG4 S228P, F234A L235A, V domains shown)
VH: EVQLVESGGGVVQPGGSLRLSCAASGFTFSPSDMAWFRQAPGKGLEGVATISAAGRLTYYTDSVRGRFTISRDNSKNTLYLQMNSLRAEDTAVYYCAADFAGGSSLFADYKYWGQGTMVTVSS
[1]
  EC50: 0.137 nM
[2]
  EC50: 0.088 nM

B7: humanized anti-PVRIG antibody 38H8 (antibody, human IgG4 S228P, F234A L235A, V domains shown)
VH: EVQLVESGGGVVQPGGSLRLSCAASPSTYGPSDMAWFRQAPGKGLEGVATISAAGRLTYYTDSVRGRFTISRDNSKNTLYLQMNSLRAEDTAVYYCAADFAGGSSLFADYKYWGQGTMVTVSS
[2]
  EC50: 0.065 nM

B8: humanized anti-PVRIG antibody 38H4 (antibody, human IgG4 S228P, F234A L235A, V domains shown)
VH: EVQLVESGGGVVQPGGSLRLSCAASPFTYGPSDMAWFRQAPGKGLEGVATISAAGRLTYYTDSVRGRFTISRDNSKNTLYLQMNSLRAEDTAVYYCAADFAGGSSLFADYKYWGQGTMVTVSS
[1]
  EC50: 0.095 nM
[2]
  EC50: 0.062 nM

B9: humanized anti-PVRIG antibody 30H3 (antibody, human IgG4 S228P, F234A L235A, V domains shown)
VH: EVQLVESGGGLVQPGGSLRLSCAASGYSYSGDCMGWFRQAPGKGLDEGVATIDNAGRIKYADSVKGRFTISRDNAKNSLYLQMNSLRAEDTAVYYCAAGWTFGGQCSPADWGQGTQVTVSS
[3]
  PVRIG reporter gene cell activity EC50: 0.078 nM
[4]
  Kd: 2.41 nM
  koff: 0.000358 s⁻¹
  kon: 148000 M⁻¹ s⁻¹
[1]
  EC50: 0.003 nM
[2]
  EC50: 0.004 nM

B10: humanized anti-PVRIG antibody 20H4 (antibody, human IgG4 S228P, F234A L235A, V domains shown)
VH: EVQLVESGGGLVQPGGSLRLSCAASGYTSRTDCMGWFRQAPGKGLEGVAHIDSDGIPRYVDSVKGRFTISQDHAKNSLYLQMNSLRAEDTAVYYCVVGFKFDEDYCAPNDWGQGTMVTVSS
[1]
  EC50: 0.591 nM
[2]
  EC50: 0.008 nM

B11: humanized anti-PVRIG antibody 20H3 (antibody, human IgG4 S228P, F234A L235A, V domains shown)
VH: EVQLVESGGGLVQPGGSLRLSCAASGYTFSTDCMGWFRQAPGKGLEGVAHIDSDGIPRYVDSVKGRFTISQDHAKNSLYLQMNSLRAEDTAVYYCVVGFKFDEDYCAPNDWGQGTMVTVSS
[1]
  EC50: 1.5 nM
[2]
  EC50: 0.006 nM

B12: humanized anti-PVRIG antibody 20H2 (antibody, human IgG4 S228P, F234A L235A, V domains shown)
VH: EVQLVESGGGLVQPGGSLRLSCAASGFTSRTDCMGWFRQAPGKGLEGVAHIDSDGIPRYVDSVKGRFTISRDNAKNSLYLQMNSLRAEDTAVYYCVVGFKFDEDYCAPNDWGQGTMVTVSS
[1]
  EC50: 0.338 nM
[2]
  EC50: 0.006 nM

B13: humanized anti-PVRIG antibody 20H1 (antibody, human IgG4 S228P, F234A L235A, V domains shown)
VH: EVQLVESGGGLVQPGGSLRLSCAASGFTFSTDCMGWFRQAPGKGLEGVAHIDSDGIPRYVDSVKGRFTISRDNAKNSLYLQMNSLRAEDTAVYYCVVGFKFDEDYCAPNDWGQGTMVTVSS
[1]
  EC50: 0.658 nM
[2]
  EC50: 0.019 nM

B14: humanized anti-PVRIG antibody 39H4 (antibody, human IgG4 S228P, F234A L235A, V domains shown)
VH: EVQLVESGGGLVQPGGSLRLSCAASGYTSRTDCMGWFRQAPGKGLEGVAHIDSDGIPRYVESVKGRFTISQDHAKNSLYLQMNSLRAEDTAVYYCVVGFKFGDYCAPNDWGQGTMVTVSS
[3]
  PVRIG reporter gene cell activity EC50: 0.094 nM
[4]
  Kd: 0.482 nM
  koff: 9.11e-05 s⁻¹
  kon: 189000 M⁻¹ s⁻¹
[1]
  EC50: 0.006 nM
[2]
  EC50: 0.005 nM

B15: humanized anti-PVRIG antibody 39H1 (antibody, human IgG4 S228P, F234A L235A, V domains shown)
VH: EVQLVESGGGLVQPGGSLRLSCAASGFTFSTDCMGWFRQAPGKGLEGVAHIDSDGIPRYVESVKGRFTISRDNAKNSLYLQMNSLRAEDTAVYYCVVGFKFGDYCAPNDWGQGTMVTVSS
[3]
  PVRIG reporter gene cell activity EC50: 0.191 nM
[4]
  Kd: 3.28 nM
  koff: 0.000865 s⁻¹
  kon: 264000 M⁻¹ s⁻¹
[5]
  NK92 killing of K562, killing activity (%), 4 nM antibody: 13.7%
  NK92 killing of K562, killing activity (%), 20 nM antibody: 17.7%
  NK92 killing of K562, killing activity (%), 100 nM antibody: 21.2%
[1]
  EC50: 0.251 nM
[2]
  EC50: 0.004 nM

B16: humanized anti-PVRIG antibody 39H5 (antibody, human IgG4 S228P, F234A L235A, V domains shown)
VH: EVQLVESGGGLVQPGGSLRLSCAASGYTSRTDCMGWFRQAPGKEREGVAHIDSDGIPRYVESVKGRFTISQDHAKNSLYLQMNSLRAEDTAVYYCVVGFKFGDYCAPNDWGQGTMVTVSS
[1]
  EC50: 0.208 nM
[2]
  EC50: 0.006 nM

B17: humanized anti-PVRIG antibody 39H3 (antibody, human IgG4 S228P, F234A L235A, V domains shown)
VH: EVQLVESGGGLVQPGGSLRLSCAASGYTFSTDCMGWFRQAPGKGLEGVAHIDSDGIPRYVESVKGRFTISQDHAKNSLYLQMNSLRAEDTAVYYCVVGFKFGDYCAPNDWGQGTMVTVSS
[1]
  EC50: 0.348 nM
[2]
  EC50: 0.005 nM

B18: humanized anti-PVRIG antibody 39H2 (antibody, human IgG4 S228P, F234A L235A, V domains shown)
VH: EVQLVESGGGLVQPGGSLRLSCAASGFTSRTDCMGWFRQAPGKGLEGVAHIDSDGIPRYVESVKGRFTISRDNAKNSLYLQMNSLRAEDTAVYYCVVGFKFGDYCAPNDWGQGTMVTVSS
[3]
  PVRIG reporter gene cell activity EC50: 0.074 nM
[4]
  Kd: 0.692 nM
  koff: 0.000124 s⁻¹
  kon: 180000 M⁻¹ s⁻¹
[5]
  NK92 killing of K562, killing activity (%), 4 nM antibody: 15.3%
  NK92 killing of K562, killing activity (%), 20 nM antibody: 18.7%
  NK92 killing of K562, killing activity (%), 100 nM antibody: 19.7%
[1]
  EC50: 0.019 nM
[2]
  EC50: 0.006 nM
